Substitutions are numbered along the chain they refer to. No end group written: not given here. *: point of attachment. FITC = O=C1OC2(c3ccc(O)cc3Oc3cc(O)ccc32)c2ccc(NC(=S)*)cc21
What was measured:
Settings in all cases: both partners purified
[1] = target: T1, H3.3/H4 (human | X. laevis, UniProt P84243 1-136; P62799 1-103); assay: fluorescence polarisation; direct: increasing H3/H4 titrated into 10 nM FITC-UBN1(127–148); 20 mM HEPES pH 7.5, 750 mM NaCl, 1 mM TCEP; one site total binding fit
T1 construct: histone H3.3, human, from a human cDNA library (ATCC 77430); also called H3.3(FL)/H4(FL); FL H3.3/H4; not shown: His6, N-terminal, cleaved; copies: 2 + 2

[2] = target: T2, H3.1/H4 (human | X. laevis, UniProt P68431 1-136; P62799 1-103); assay: as above
T2 construct: also called H3.1(FL)/H4(FL); FL H3.1/H4; not shown: His6, N-terminal, cleaved; copies: 2 + 2

[3] = target: T1, H3.3/H4; assay: pull-down; 2 μM GST-tagged protein as bait on glutathione agarose, 4 μM H3/H4; 20 mM HEPES pH 7.5, 750 mM NaCl, 1 mM TCEP, 4 °C; Coomassie gel (Figs 2, 3, Supplementary Figs 1, 4, 5)
[4] = target: T1, H3.3/H4; assay: ITC + fluorescence polarisation; range of dissociation constants printed 'depending on the assay used' (ITC and FP competition against FITC-UBN1(127–148)); 750 mM NaCl buffer
[5] = target: T1, H3.3/H4; assay: fluorescence polarisation; competition: UBN1 competitor titrated into 10 nM FITC-UBN1(127–148) with 6.5 μM H3.3/H4 or 25 μM H3.1/H4; 20 mM HEPES pH 7.5, 750 mM NaCl, 1 mM TCEP
[6] = target: T1, H3.3/H4; assay: ITC; 0.450 mM UBN1 injected into a cell with 30 μM H3/H4, 22 °C; 20 mM HEPES pH 7.5, 750 mM NaCl, 1 mM TCEP
[7] = target: T3, Asf1/H3.3(FL)/H4(FL) (S. cerevisiae | human | X. laevis, UniProt P32447 1-169; P84243 1-136; P62799 1-103); assay: as above
T3 construct: histone H3.3, human; also called Asf1/H3.3(FL)/H4(FL) complex; not shown: His6, N-terminal, cleaved; copies: + +

B1: FITC-UBN1(127–148) (peptide)
peptide: {FITC}-DMGYGYDESDSFIDNSEAYDEL
notes: also called FITC-labelled UBN1 peptide; source: synthetic peptide (Genscript)
Kd [1]: 4.3 ± 0.2 µM
Kd [2]: 17.7 ± 2.3 µM

B2: GST-UBN1(92–175) E134A (domain or fragment)
chain: NDEEKERHKVEALARKFEEKYGGKKRRKDRIQDLIDMGYGYDASDSFIDNSEAYDELVPASLTTKYGGFYINSGTLQFRQASES
notes: one of the 27 alanine point mutants; the text names only the residue; also called E134 alanine point mutant; source: E. coli BL21-Gold(DE3), purified; not shown: GST, N-terminal, kept
binding result [3]: binds

B3: GST-UBN1(92–175) S135A (domain or fragment)
chain: B2 chain with A43E, S44A
notes: one of the 27 alanine point mutants; the text names only the residue; also called S135 alanine point mutant; source: E. coli BL21-Gold(DE3), purified; not shown: GST, N-terminal, kept
binding result [3]: binds

B4: GST-UBN1(92–175) S137A (domain or fragment)
chain: B2 chain with A43E, S46A
notes: also called S137 alanine point mutant; source: E. coli BL21-Gold(DE3), purified; not shown: GST, N-terminal, kept
binding result [3]: binds

B5: UBN1(92–175) (domain or fragment)
chain: B2 chain with A43E
notes: also called UBN1 WT; source: E. coli BL21-Gold(DE3), purified (glutathione agarose, TEV cleavage, gel filtration); not shown: GST, N-terminal, cleaved
Kd [4]: 7 to 17 µM

B6: UBN1(92–175) E134A (domain or fragment)
chain: B2 chain
notes: one of the 27 alanine point mutants; the text names only the residue; also called E134 alanine point mutant; source: E. coli BL21-Gold(DE3), purified (TEV cleavage, gel filtration); not shown: GST, N-terminal, cleaved
binding result [5]: binds

B7: UBN1(92–175) S135A (domain or fragment)
chain: B2 chain with A43E, S44A
notes: one of the 27 alanine point mutants; the text names only the residue; also called S135 alanine point mutant; source: E. coli BL21-Gold(DE3), purified (TEV cleavage, gel filtration); not shown: GST, N-terminal, cleaved
binding result [5]: binds

B8: UBN1(92–175) S137A (domain or fragment)
chain: B2 chain with A43E, S46A
notes: source: E. coli BL21-Gold(DE3), purified (TEV cleavage, gel filtration); not shown: GST, N-terminal, cleaved
binding result [5]: binds

B9: UBN1(92–148) (domain or fragment)
chain: NDEEKERHKVEALARKFEEKYGGKKRRKDRIQDLIDMGYGYDESDSFIDNSEAYDEL
binding result [6]: binds

B10: UBN1(122–175) (domain or fragment)
chain: not shown
binding result [6]: binds

B11: UBN1(122–148) peptide (peptide)
peptide: IQDLIDMGYGYDESDSFIDNSEAYDEL
notes: also called UBN1-HRD peptide; source: synthetic peptide (Genscript)
Kd [4]: 40 to 46 µM
Kd [7]: ~49 µM
